According to US20230227577A1 (MYTHIC THERAPEUTICS, published 2023):

Assays:
[1] = target: T1, DLL3 target antigen coated on Octet SA tips (binning experiment) (Homo sapiens (Human), UniProt Q9NYJ7 27-492, Probably biotinylated for capture on streptavidin (SA) tips. The site is not stated.); assay: Octet binning on DLL3-coated SA tips; competitor: 3HCE4
T1 sequence: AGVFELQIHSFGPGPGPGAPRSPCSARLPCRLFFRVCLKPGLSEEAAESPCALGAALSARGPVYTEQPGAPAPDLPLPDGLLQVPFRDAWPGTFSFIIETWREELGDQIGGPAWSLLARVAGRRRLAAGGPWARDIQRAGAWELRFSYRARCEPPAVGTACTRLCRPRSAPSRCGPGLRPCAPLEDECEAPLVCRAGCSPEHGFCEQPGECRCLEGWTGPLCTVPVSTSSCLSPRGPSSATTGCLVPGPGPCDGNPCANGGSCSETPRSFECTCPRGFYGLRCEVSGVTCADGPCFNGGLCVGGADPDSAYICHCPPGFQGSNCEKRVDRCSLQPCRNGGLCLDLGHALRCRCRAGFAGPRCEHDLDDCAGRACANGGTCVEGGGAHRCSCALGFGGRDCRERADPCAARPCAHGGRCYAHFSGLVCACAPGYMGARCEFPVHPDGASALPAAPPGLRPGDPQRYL
Protocol: (§1) Antibody binning experiments were carried out for 5 anti-DLL3 VHHs and an anti-human DLL3 BiTE (SEQ ID NO: 756). The target antigen was coated on a series of Octet SA tips. Each series of tips was first soaked in a periplasmic extract containing one specific VHH. After the response signals reached saturation, the tips were transferred to a mix of PEs containing again the first VHH (at the same concentration) plus a different VHH (termed secondary VHH) for each tip of the series. Secondary VHH that still bind the target antigen in the presence of the first VHH will show an increased response, as compared to the binding response of the first VHH alone. This was repeated for each VHH as primary VHH until all VHH were tested against each other in both directions (as primary and as secondary binder). From the response data, the bins were deduced for each VHH. 2HCE117 and 3HCE4 show competition with the human DLL3 BiTEs, whereas 3HCE56 and 3HCE87 show a partial competition.

[2] = target: T2, recombinant human DLL3 protein (human, UniProt Q9NYJ7 27-492, limits assumed); assay: Fortebio Octet Red, DLL3 immobilised on tips, dilution series of the VHH, 1:1 binding model; KD error 1.90E-10; Full R2 0.9862
T2 construct: also called rhu DLL3; human biotinylated DLL3
T2 sequence (looked up): T1 sequence
Protocol: (§2) Additional experiments were carried out to further characterize the binding properties of the anti-DLL3 constructs. Binding properties tested include dissociation constant (KD), off-rate (koff), binding to DLL3 protein by ELISA and binding to CHO cells expressing human, cyno or mouse DLL3. To obtain off-rate (koff), human biotinylated DLL3 was immobilized on Octet SA tips, and cynomolgus or mouse DLL3 was immobilized on Octet AR2G tips. For each DLL3 protein, the binding to a dilution series of each anti-DLL3 construct was measured using Fortebio Octet Red. The dissociation constant (KD), off-rate (koff) and other kinetic parameters for each anti-DLL3 construct were calculated using a 1:1 binding model. In addition, binding of these anti-DLL3 constructs to CHO cells expressing human, cyno or mouse DLL3 protein was analyzed using flow cytometry (FACS).

[3] = target: T2, recombinant human DLL3 protein; assay: Fortebio Octet Red, DLL3 immobilised on tips, dilution series of the VHH, 1:1 binding model; koff error 4.12E-06; Full R2 0.9862
Protocol: as §2

[4] = target: T3, DLL3 (ELISA DLL3); assay: ELISA, ratio of the signal on DLL3 to the signal on the control
T3 construct: also called DLL3 protein in ELISA
T3 chain: T1 sequence

[5] = target: T1, DLL3 target antigen coated on Octet SA …; assay: Octet binning on DLL3-coated SA tips; competitor: 3HCE87
Protocol: as §1

[6] = target: T2, recombinant human DLL3 protein; assay: Fortebio Octet Red, DLL3 immobilised on tips, dilution series of the VHH, 1:1 binding model; kon error 5.82E+02; Full R2 0.9862
Protocol: as §2

[7] = target: T4, mouse DLL3 protein (mouse, UniProt O88516 33-490, limits assumed); assay: Octet (DLL3 on AR2G tips), ELISA and FACS; values only in FIG. 3
T4 construct: also called murine DLL3
T4 sequence (looked up): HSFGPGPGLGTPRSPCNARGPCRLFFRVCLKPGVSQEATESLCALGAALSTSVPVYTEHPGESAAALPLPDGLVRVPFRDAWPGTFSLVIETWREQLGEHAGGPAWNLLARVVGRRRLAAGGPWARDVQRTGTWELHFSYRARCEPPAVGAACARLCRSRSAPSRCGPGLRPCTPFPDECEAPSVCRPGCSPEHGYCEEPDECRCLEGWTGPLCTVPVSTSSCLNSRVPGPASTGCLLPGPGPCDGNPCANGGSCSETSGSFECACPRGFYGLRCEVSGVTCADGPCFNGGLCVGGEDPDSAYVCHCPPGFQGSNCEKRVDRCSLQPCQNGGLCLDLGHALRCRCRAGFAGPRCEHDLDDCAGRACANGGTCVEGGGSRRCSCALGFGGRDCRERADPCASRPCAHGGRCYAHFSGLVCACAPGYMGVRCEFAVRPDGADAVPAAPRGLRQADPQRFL

[8] = target: T1, DLL3 target antigen coated on Octet SA …; assay: Octet binning on DLL3-coated SA tips; competitor: DLL3 BiTEs
Protocol: as §1

[9] = target: T1, DLL3 target antigen coated on Octet SA …; assay: Octet binning on DLL3-coated SA tips; competitor: 3HCE56
Protocol: as §1

[10] = target: T1, DLL3 target antigen coated on Octet SA …; assay: Octet binning on DLL3-coated SA tips; competitor: 2HCE27
Protocol: as §1

[11] = target: T5, mouse DLL3 on CHO cells (mouse, UniProt O88516 33-592); assay: flow cytometry (FACS) on CHO cells expressing mouse DLL3
T5 construct: whole, on cells; also called CHO cells expressing mouse DLL3
T5 sequence (looked up): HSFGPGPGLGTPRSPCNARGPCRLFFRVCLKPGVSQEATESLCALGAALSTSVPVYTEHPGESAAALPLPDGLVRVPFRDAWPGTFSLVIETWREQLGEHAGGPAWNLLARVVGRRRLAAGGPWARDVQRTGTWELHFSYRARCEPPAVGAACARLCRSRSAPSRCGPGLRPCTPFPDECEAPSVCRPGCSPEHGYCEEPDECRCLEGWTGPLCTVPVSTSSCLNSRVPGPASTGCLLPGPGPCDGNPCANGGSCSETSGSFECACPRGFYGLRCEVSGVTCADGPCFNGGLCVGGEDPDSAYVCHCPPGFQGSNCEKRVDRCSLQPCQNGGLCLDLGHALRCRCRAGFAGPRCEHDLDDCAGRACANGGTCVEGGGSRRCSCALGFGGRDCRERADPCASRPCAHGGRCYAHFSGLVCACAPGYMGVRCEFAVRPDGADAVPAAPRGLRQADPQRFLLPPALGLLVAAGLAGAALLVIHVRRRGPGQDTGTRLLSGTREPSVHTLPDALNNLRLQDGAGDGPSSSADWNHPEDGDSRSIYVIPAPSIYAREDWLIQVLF
Protocol: as §2

[12] = target: T1, DLL3 target antigen coated on Octet SA …; assay: Octet binning on DLL3-coated SA tips; competitor: 2HCE117
Protocol: as §1

binning response (unit not given) [1]: -79.6
Kd [2]: 21.3 nM
koff [3]: 0.00146 s⁻¹
DLL3 / control [4]: 18.5
binning response (unit not given) [5]: -99.1
kon [6]: 68500 M⁻¹ s⁻¹
binding result [7]: binds
binning response (unit not given) [8]: 44.1
binning response (unit not given) [9]: 0
binning response (unit not given) [10]: -3.58
binding result [11]: binds
binning response (unit not given) [12]: 1110
B1: 3HCE56 anti-DLL3 VHH (VHH)
VHH: QVQLQESGGGLVQAGGSLRLSCAASGRTFSVDAMGWLRQAPGKEREFVVVIDWTGGSTAYADSVKGRFTISRDNARNTVYLQMNNLKPEDTGVYYCAARERSRTAYDYWGQGTQVTVSS
notes: In the binning assay it was used as a periplasmic extract
